Experimental data from publication PMC11329700 (2024).

B1: GST-Dyn1xA-PRR (dynamin 1xA proline-rich region, amino acids 746-864) [rat] / Amphiphysin 1 [rat (endogenous in rat brain synaptosomes)] (parent complex)
chain 1: NTTTVSTPMPPPVDDSWLQVQSVPAGRRSPTSSPTPQRRAPAVPPARPGSRGPAPGPPPAGSALGGAPPVPSRPGASPDPFGPPPQVPSRPNRAPPGVPSRSGQASPSRPESPRPPFDL
chain 2: MADIKTGIFAKNVQKRLNRAQEKVLQKLGKADETKDEQFEEYVQNFKRQEAEGTRLQRELRGYLAAIKGMQEASMKLTESLHEVYEPDWYGREDVKMVGEKCDVLWEDFHQKLVDGSLLTLDTYLGQFPDIKNRIAKRSRKLVDYDSARHHLEALQSSKRKDESRISKAEEEFQKAQKVFEEFNVDLQEELPSLWSRRVGFYVNTFKNVSSLEAKFHKEIAVLCHKLYEVMTKLGDQHADKAFSIQGAPSDSGPLRIAKTPSPPEEASPLPSPTASPNHTLAPASPAPVRPRSPSQTRKGPPVPPLPKVTPTKELQQENIINFFEDNFVPEINVTTPSQNEVLEVKKEETLLDLDFDPFKPDVTPAGSAAATHSPMSQTLPWDLWTTSTDLVQPASGGSFNDFTQPQDTSLFTMQTDQNMAETEQALPTEPQAEEPPTTAAAPTAGLDLGLEMEEPKEEAAIPPGTDAGETVGTEGSTGEEAEAEKAALPAGEGESPEGAKIDVESTELASSESPQAAELEAGAPQEKVIPSVVIEPASNHEGEEHQETTTGTETREATEDVAPQGPAGEKQELATEPTPLDSQAATPAPAGAVDASLSAGDAAQELPPGFLYKVETLHDFEAANSDELTLQRGDVVLVVPSDSEADQDAGWLVGVKESDWLQYRDLATYKGLFPENFTRHLE

Variants of: B1
Assay: GST pull-down, quantified Western blot; parent: 60; read off a plot
With chain 1 NTTTVSTPMPPPVDDSWLQVQSVPAGRRSPTSSPTPQRRAPAVPPARPGSRGPAPGPPPAGSALGGAPPVPSRPGASPDPFGPPPQVPSRPNRAPPGVPSASGQASPSRPESPRPPFDL the response was roughly 51 normalized intensity.
